T1: human DLL1 (purchased from Acro, DL1-H52H8) (human, UniProt O00548 18-540)
T1 construct: Bought; also called hDLL1
T1 sequence (looked up): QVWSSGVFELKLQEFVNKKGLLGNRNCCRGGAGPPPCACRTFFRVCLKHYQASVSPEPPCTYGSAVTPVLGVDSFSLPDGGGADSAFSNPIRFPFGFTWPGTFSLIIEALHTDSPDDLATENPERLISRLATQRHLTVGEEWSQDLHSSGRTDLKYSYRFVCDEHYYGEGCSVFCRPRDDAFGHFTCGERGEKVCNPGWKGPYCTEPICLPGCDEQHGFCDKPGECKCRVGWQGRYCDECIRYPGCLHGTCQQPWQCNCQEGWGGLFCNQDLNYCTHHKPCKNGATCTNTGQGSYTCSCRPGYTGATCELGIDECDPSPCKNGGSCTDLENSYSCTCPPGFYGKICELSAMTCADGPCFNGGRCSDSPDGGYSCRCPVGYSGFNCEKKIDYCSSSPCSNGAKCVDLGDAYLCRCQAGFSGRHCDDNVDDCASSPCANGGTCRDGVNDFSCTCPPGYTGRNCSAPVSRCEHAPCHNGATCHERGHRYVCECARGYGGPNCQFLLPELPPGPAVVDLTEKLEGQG

T2: recombinant DLL3 protein (purchased from ACRO, DL3-H5255) (human, UniProt Q9NYJ7 27-479)
T2 construct: Bought; also called human DLL3 protein; hDLL3
T2 sequence (looked up): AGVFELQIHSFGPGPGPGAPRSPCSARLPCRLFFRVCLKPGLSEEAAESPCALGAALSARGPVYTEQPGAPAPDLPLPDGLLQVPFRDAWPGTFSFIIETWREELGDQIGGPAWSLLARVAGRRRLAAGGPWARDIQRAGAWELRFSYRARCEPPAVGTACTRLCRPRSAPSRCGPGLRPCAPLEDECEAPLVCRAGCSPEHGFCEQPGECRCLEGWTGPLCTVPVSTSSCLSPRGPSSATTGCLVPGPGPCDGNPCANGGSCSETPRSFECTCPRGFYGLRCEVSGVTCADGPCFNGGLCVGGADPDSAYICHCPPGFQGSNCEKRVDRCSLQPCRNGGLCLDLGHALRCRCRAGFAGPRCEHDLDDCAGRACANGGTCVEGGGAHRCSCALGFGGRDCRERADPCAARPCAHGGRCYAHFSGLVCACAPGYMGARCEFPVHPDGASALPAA

T3: human DLL3 (hDLL3) on cells (human, UniProt Q9NYJ7 27-618)
T3 construct: whole, on cells; V5-tagged); also called DLL3 on SHP-77 cells (endogenous); hDLL3 on HEK293 cells
T3 sequence (looked up): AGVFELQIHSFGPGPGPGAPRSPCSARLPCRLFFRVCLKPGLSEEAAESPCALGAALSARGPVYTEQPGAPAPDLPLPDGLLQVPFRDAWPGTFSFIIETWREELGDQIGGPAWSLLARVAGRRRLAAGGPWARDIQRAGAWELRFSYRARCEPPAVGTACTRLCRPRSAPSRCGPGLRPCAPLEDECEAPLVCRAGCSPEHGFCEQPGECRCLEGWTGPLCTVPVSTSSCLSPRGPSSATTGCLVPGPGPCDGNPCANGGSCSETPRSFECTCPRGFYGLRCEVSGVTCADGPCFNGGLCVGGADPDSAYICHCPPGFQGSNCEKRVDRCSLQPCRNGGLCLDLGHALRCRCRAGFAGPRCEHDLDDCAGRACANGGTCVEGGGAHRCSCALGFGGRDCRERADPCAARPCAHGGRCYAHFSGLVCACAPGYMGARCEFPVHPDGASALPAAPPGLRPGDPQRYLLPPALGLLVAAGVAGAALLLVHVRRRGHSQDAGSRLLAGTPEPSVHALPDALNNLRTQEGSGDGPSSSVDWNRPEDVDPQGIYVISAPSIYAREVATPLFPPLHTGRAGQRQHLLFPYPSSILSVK


Legend:
[1] = molecular target: T1, human DLL1 (purchased from Acro, …); experiment: ELISA on plate-coated human DLL1 protein (1 µg/ml), HRP goat anti-human secondary, OD 450 nm [left panel]
Description: The chimeric antibodies obtained in Example 6 were evaluated for their binding abilities to human DLL1 (purchased from Acro, DL1-H52H8) and DLL4 (purchased from Acro, DL4-H5227) proteins using the ELISA method. The ELISA detection method involved diluting DLL1 and DLL4 proteins with PBS to a final concentration of 1 μg/ml and coating them onto 384-well ELISA plates (purchased from Corning, 3700) at 4° C. overnight. The next day, the supernatant in the plate wells was discarded, and the wells were blocked with 80 μl of 3% milk (dissolved in PBS) for 2 hours, followed by washing three times with 80 μl of PBST (0.1% Tween20). […] After washing with 80 μl of PBST (0.1% Tween20) for five times, 25 μl of HRP-labeled goat anti-human secondary antibody (Jackson, 1:10000) was added to each well and incubated at room temperature for 1 hour, discard the supernatant, and the wells were then washed seven times with 80 μl of PBST (0.1% Tween20). After adding 25 μl of TMB chromogen solution for 10 minutes, the reaction was terminated with 2M HCl, and the absorbance value at 450 nm was measured with a Microplate reader (purchased from Biotek, Elx808). […] To assess the cross-reactivity of the antibodies with mouse and monkey DLL3, mouse DLL3-expressing plasmid pCMV3-mDLL3 (purchased from Beijing Yiqiao, MG58052-UT) and monkey DLL3-expressing plasmid pCMV3-rheDLL3 (purchased from Beijing Yiqiao, CG90919-UT) were used to construct overexpressing cell lines. The construction of overexpressing cells was as described in Examples 2-3. The binding abilities of the chimeric antibodies to these cells were determined by flow cytometry to assess the cross-reactivity of the antibodies with different species.

[2] = molecular target: T2, recombinant DLL3 protein (purchased …); experiment: ELISA, plate-coated human DLL3 protein 1 µg/ml
Excerpt: Six 6-week-old SPF grade female Balb/C mice (purchased from Shanghai Jihui Laboratory Animal Care Co., Ltd.) were selected and randomly divided into two groups, A and B. They were immunized with recombinant DLL3 protein (purchased from ACRO, DL3-H5255) at two-week intervals. Freund's complete adjuvant was used for the first immunization and Freund's incomplete adjuvant was used for subsequent immunizations. On days 35 and 49, blood samples were collected from the mice via orbital bleeding, and the immune serum titers of the mice were detected using conventional methods of ELISA and Flow Cytometry (FACS). ELISA detection method: DLL3 protein was diluted with PBS to a concentration of 1 μg/ml. 100 μl/well was added to a 96-well ELISA plate and incubated overnight at 4° C. The next day, the supernatant was discarded, and each well was blocked with 200 μl of 2% milk in PBS for 2 hours. After discarding the blocking solution, the wells were washed 3 times with 200 μl of PBST (0.1% Tween20). The serum to be detected was pre-diluted 100 times as the starting concentration, followed by a 3-fold gradient dilution across 11 concentrations, with 100 μl added to each well of the ELISA plate. After incubating at room temperature for 1 hour, the supernatant was discarded and the wells were washed 5 times with 200 μl of PBST (0.1% Tween20). Then, 100 μl of HRP-labeled goat anti-mouse secondary antibody (Jackson, 1:10000) was added and incubated at room temperature for 1 hour. After discarding the supernatant, the wells were washed 7 times with 200 μl of PBST (0.1% Tween20). 100 μl of TMB chromogen solution was added to each well for 10 minutes. The reaction was terminated with 2M HCl, and absorbance value at 450 nm was read with a Microplate Reader (purchased from Biotek, Elx808).
For the hybridoma clones with good binding and internalization activities identified in Example 5, the heavy chain variable region sequences were synthesized and cloned into the pFUSEss-CHIg-hG1 vector (purchased from InvivoGen, catalog number pfusess-hchgl) comprising the amino acid sequence of the human antibody IgG1 heavy chain constant region by homologous recombination.

[3] = molecular target: T3, human DLL3 (hDLL3) on cells; experiment: flow cytometry on SHP-77 cells, 1 µg/ml antibody, kept on ice (0 H of the internalization assay)
Description: The SHP-77 cells were used to detect the internalization activity of the hybridoma antibodies obtained in Example 3-3 by using the FACS method described in Example 3-1. The detecting method is briefly described as follows: Six aliquots of 5×10⁵ SHP-77 cells each were prepared in a 96-well V-bottom plate and centrifuged at 1500 r/min for 1 minute, after which the supernatant was discarded. 1 μg/ml of the saturated antibody to be detected was added to each well (200 μL per well) and incubated on ice for 30 minutes. Then, 150 μL of PBS was added to each well, followed by centrifugation at 1500 r/min for 1 minute, and the supernatant was discarded. This step was repeated four times. The cells were resuspended in 200 μl of PBS, and one aliquot was incubated at 37° C. for various durations: 5 hours, 3 hours, 1 hour, 0.5 hours, and 15 minutes. The remaining aliquot was kept on ice. After incubation, all samples were centrifuged at 4° C., 1500 r/min for 1 minute, and the supernatant was discarded. APC-labeled goat anti-mouse IgG (Jackson, catalog number 109-605-098, diluted 1:800 in PBS) was added to each well (50 μL per well) and incubated on ice for 30 minutes. The cells were then washed four times by resuspending in 150 μL of PBS, followed by centrifugation at 1500 r/min for 1 minute and discarding the supernatant. Finally, the cells were resuspended in 100 μL of PBS and analyzed using a CytoFLEX flow cytometer (purchased from Beckman).

Row | Binder | binding result [1] | EC50 [2] | fluorescence value at 0 H [3]
1 | FDA031 (antibody, human IgG1, kappa, V domains shown, also called anti-DLL3 antibody FDA031) VH: QVQLVQSGAEVKKPGASVKVSCKASGYTFTRYWIHWIRQAPGQGLEWMGYINPTTVYTEFNQNFKDRVTMTRDTSTSTVYMELSSLRSEDTAVYYCARGGSNFFDYWGQGTTVTVSS VL: AIQLTQSPSSLSASVGDRVTITCRASENIYYNLAWYQQKPGKAPKLLIYTANSLEDGVPSRFSGSGSGTDFTLTISSLQPEDFATYFCKQAYDVPPTFGGGTKLEIKR | no binding (tested: 20 µg/ml) | 0.0233 µg/mL | 
2 | 36H10 (antibody, V domains shown, Murine hybridoma monoclonal antibody; also called hybridoma antibody clone 36H10) VH: EVQFQQSGPELVKPGASVKISCKASGYTFTDYNIHWVRQSQGKSLEWIGLIYPFNGGIVYNQKFKSKATLTVDNSSTSAYMELRSLSSEDSAVYFCARLNWEGYWGQGSTLIVSS VL: DIKMTQSPSSIYAFLGERVTITCKASQDINSYLSWFQQKPGKSPKTLIYRANRLVGGVPSRFSGSGSGQDYSLTISSLEYEDVGDYYCLQYAEFPYTFGGGTKLEIK |  |  | 36000
3 | 33F11 (antibody, V domains shown, Murine hybridoma monoclonal antibody; also called hybridoma antibody clone 33F11) VH: EVQLQQSGPELVKPGASVKISCKTSGYTFTENTMHWVKQSHGESLEWIGGINPRNGVTSYNQKFKGKATLTVDKSSSTAYMELRSLTSEDSAVYYCTNTYYRDYFDYWGQGTTLTVSS VL: NIVMTQSPKSMSMSVGERVTLSCKASENVGTYVSWYQQKPDQSPKLLIYGASNRYTGVPDRFTGSGSPTDFTLTISRMQAEDLAHYYCGQTYTYPLTFGAGTKLELK |  |  | 27600
4 | 23G2 (antibody, V domains shown, Murine hybridoma monoclonal antibody; also called hybridoma antibody clone 23G2) VH: QVQLQQSGPELVRPGVSVKISCKGSGYTFTDYAIHWVKQSRAKSPEWIGIVSTDSGKTSFNQKFKGKATMTVDKSSTTAYMELVRLTSEDSAIYYCARNPYYDYDGYAMDYWGQGTSVTVSS VL: DIQMTQSSSYLSVSLGGRVTIICKASDHINNWLAWYQQKPGNAPRLIISGATSLETGVPSRFSGSGSGKDYTLSITSLQTEDVATYYCQQYWSIPYTFGGGTKLEIK |  |  | 20300
5 | 32E8 (antibody, V domains shown, Murine hybridoma monoclonal antibody; also called hybridoma antibody clone 32E8) VH: QVTLKESGPGILQPSQTLSLTCSFSGFSLSTSGMGVGWIRQPSGKGLEWLALIWWDDVKRYHPALKSRLTISKDTSSSQVFLKIASVDTADTATYYCARIAEVTGQVGLHYAMDYWGQGTSVTVSS VL: QTVLTQSPAIMSASLGERVTMTCTASSSVNSSSLHWYQQKPGSSPKLWIYTTSNLASGVPARFSGSGSGTSYSLTISSMEAEDAATYYCHQFHRSPFTFGSGTKLEIK |  |  | 32100
6 | 26D9 (antibody, V domains shown, Murine hybridoma monoclonal antibody; also called hybridoma antibody clone 26D9) VH: EVQLQQSGPELVKPGASVKMSCKASGYTFTTYVMHWVKQKPGQGLEWIGYINPYNDDTNYNEKFKGKATLTSDKSSSTAYMELSSLTSEDSAVYYCARWGLTGTGDYYAMDYWGQGTSVTVSS VL: DIQMTQSPASLSASVGETVTITCRASGNVHNYLAWYQQKQGRSPQVLVYNAKTLADGVPSRFSGSGSGTQYSLKINSLLPEDFGSYYCQHFWTTPWTFGGGTTLEIK |  |  | 15300

Reference: patent US20250114467A1 (SHANGHAI FUDAN ZHANGJIANG BIO PHARMACEUTICAL, published 2025)
